# From patent US20170112926A1
# Biological target: hTEM8-AP (UniProt Q9H6X2)
# Assay: Biacore affinity measurement of Fab
# Chain of hTEM8-AP (Q9H6X2 33-321): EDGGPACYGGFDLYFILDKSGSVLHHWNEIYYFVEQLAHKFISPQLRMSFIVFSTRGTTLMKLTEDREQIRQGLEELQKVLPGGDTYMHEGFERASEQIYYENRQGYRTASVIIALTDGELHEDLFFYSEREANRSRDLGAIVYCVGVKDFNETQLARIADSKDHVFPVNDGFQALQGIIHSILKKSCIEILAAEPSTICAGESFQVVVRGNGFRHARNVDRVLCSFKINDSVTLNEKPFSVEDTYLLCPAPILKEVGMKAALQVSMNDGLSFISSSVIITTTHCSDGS
binder,measurement,value
"M825 Fab (anti-TEM8 fragment antigen-binding) (Fab, V domains shown) VH: QVQLVQSGAEVKKPGTSVKVSCKVPGYTFSSYAISWVRQAPGQGLEWMGGIIPIFGTTNYAQKFQGRVTITGEESTSTVYMELSSLRSEDTAVYYCARDTDYMFDYWGQGTLVTVSS VL: SSELTQDPVVSVALGETVSITCQGDNLRDFYASWYQQKPGQAPLLVMYGKNRRPSGIPDRFSGSTSGNTLSLTITGAQAEDEADYYCSSRDNSKHVVFGGGTKVTVL",Kd,0.0591 nM
same,koff,0.00018 s⁻¹
same,kon,3.05e+06 M⁻¹ s⁻¹
